Test results taken from the supplement of paper PMC10567573.

B1: SLC22A15 (parent)
chain: IAQYALLGYFIRSWRTLAILVNLQ

Variants of: B1
Test: protein stability index of a GFP-peptide fusion (GPS, HEK-293T) (PSI 1-6); higher = more stable
Conditions: c terminus: a fixed tail appended
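Note: lentivirally expressed fusions sorted by FACS into six bins by GFP to DsRed ratio, PSI derived from sequencing read proportions per bin multiplied by bin number.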

Protein stability index, by site and new letter:
R15: W 3.4 | A 2.1 | H 2.65 | M 2.18 | G 4.28 | Q 2.52 | Y 2.65 | D 4.08 | E 1.81 | S 2 | N 3.78 | L 2.95 | T 4.03 | V 2.88 | C 2.86 | K 3.15 | F 3.18 | I 3.23
I19: A 3.93 | W 2.01 | Q 3.02 | P 3.94 | C 3.7 | D 3.35 | L 2.4 | F 2.53 | K 2.96 | M 2.84 | R 2.16 | N 3 | E 4 | H 3.34 | V 2.96 | T 2.44 | S 1.99 | Y 3.28
R12: H 2.5 | G 2.97 | V 2.34 | N 2.27 | E 3.81 | W 2.88 | T 1.97 | D 1.86 | K 2.95 | M 2.98 | Q 1.93 | P 2.67 | C 2.67 | L 2.94 | F 3.61 | S 3.61 | I 3.48 | Y 3.46
S13: I 3.82 | C 3.26 | G 2.4 | K 1.4 | Q 2.61 | V 2.11 | Y 2.3 | L 4.37 | R 3.53 | H 3.68 | W 2.3 | F 2.29 | M 3.12 | T 3.14 | N 2.56 | P 2 | A 2.29 | D 3.34
A18: K 1.91 | C 2.44 | I 3.41 | H 2.25 | L 3.84 | W 2.12 | N 3.65 | M 2.17 | R 2.01 | G 3.28 | Y 3.11 | D 2.57 | S 3.54 | Q 2.15 | F 3.68 | P 3
L20: E 2.77 | P 3.33 | G 3.27 | D 2.57 | Q 3.19 | H 3.94 | A 3.21 | R 3.09 | C 3.7 | N 2 | M 3.89 | K 2.38 | I 5.13
T16: G 2.8 | S 3.05 | E 2.07 | A 3.28 | N 2.63 | D 1.58 | H 3.46 | C 4.17 | I 4.01 | Q 3.17 | M 3.23 | L 2.43 | Y 3.88 | K 1.98 | R 3.13 | V 3.34 | P 5.02
I11: D 3.1 | T 3.02 | E 1.63 | L 2.34 | F 3.45 | H 2.63 | N 2.32 | R 2.37 | V 2.88 | K 3.38 | Y 2.72 | S 2.68 | Q 2.14 | P 2.1 | M 2.89
L17: P 2.05 | W 2.85 | T 4.02 | R 1.98 | I 2.52 | H 3.02 | F 2.3 | K 2.4 | D 2.83 | M 2.57 | G 3.63 | Q 2.85 | S 3.35 | A 3.45 | E 3.59 | V 4.09 | Y 2.18
W14: M 2.62 | K 1.79 | H 4.19 | E 1.91 | G 3.14 | R 2.52 | P 3.8 | C 4 | T 2.6 | L 3.89 | F 2.86 | N 3.47 | I 3.04 | Q 3.34 | V 2.46 | Y 3.53 | D 2.61
